Measurements as given in US20140017734.

B1: Chimera2 of CbhA (CBM4-Ig-GH9-linker2-CBM3b-Doc) (protein)
chain: LEDNSSTLPPYKNDLLYERTFDEGLCYPWHTCEDSGGKCSFDVVDVPGQPGNKAFAVTVLDKGQNRWSVQMRHRGLTLEQGHTYRVRLKIWADASCKVYIKIGQMGEPYAEYWNNKWSPYTLTAGKVLEIDETFVMDKPTDDTCEFTFHLGGELAATPPYTVYLDDVSLYDPEYTKPVEYILPQPDVRVNQVGYLPEGKKVATVVCNSTQPVKWQLKNAAGVVVLEGYTEPKGLDKDSQDYVHWLDFSDFATEGIGYYFELPTVNSPTNYSHPFDIRKDIYTQMKYDALAFFYHKRSGIPIEMPYAGGEQWTRPAGHIGIEPNKGDTNVPTWPQDDEYAGIPQKNYTKDVTGGWYDAGDHGKYVVNGGIAVWTLMNMYERAKIRGLDNWGPYRDGGMNIPEQNNGYPDILDEARWEIEFFKKMQVTEKEDPSIAGMVHHKIHDFRWTALGMLPHEDPQPRYLRPVSTAATLNFAATLAQSARLWKDYDPTFAADCLEKAEIAWQAALKHPDIYAEYTPGSGGPGGGPYNDDYVGDEFYWAACELYVTTGKDEYKNYLMNSPHYLEMPAKMGENGGANGEDNGLWGCFTWGTTQGLGTITLALVENGLPATDIQKARNNIAKAADRWLENIEEQGYRLPIKQAEDERGGYPWGSNSFILNQMIVMGYAYDFTGDSKYLDGMFDGISYLLGRNAMDQSYVTGYGERPLQNPHDRFWTPQTSKRFPAPPPGIISGGPNSRFEDPTINAAVKKDTPPQKCFIDHTDSWSTNEITVNWNAPFAWVTAYLDEQYTDSETDTPTPTATPAPTVTPTPTPAPTPTPTPTPTATPTPTPTPTPTATPTVTATPTPTPSSTPVKVQYLCENTQTSTQEIKGKFNIVNTGNRDYSLKDIVLRYYFTKEHNSQLQFICYYTPIGSGNLIPSFGGSGDEHYLQLEFKDVKLPAGGQTGEIQFVIRYADNSFHDQSNDYSFDPTIKAFQDYGKVTLYKNGELVWGTPPGGTEPEEPEEPAIVYGDCNDDGKVNSTDVAVMKRYLKKENVNINLDNADVNADGKVNSTDFSILKRYVMKNIEELPYR
B2: wild-type CbhA from Clostridium thermocellum (CBM4-Ig-GH9-linker3-CBM3b-Doc) (protein)
chain: MKFRRSICTAVLLAVLLTLLVPTSVFALEDNSSTLPPYKNDLLYERTFDEGLCYPWHTCEDSGGKCSFDVVDVPGQPGNKAFAVTVLDKGQNRWSVQMRHRGLTLEQGHTYRVRLKIWADASCKVYIKIGQMGEPYAEYWNNKWSPYTLTAGKVLEIDETFVMDKPTDDTCEFTFHLGGELAATPPYTVYLDDVSLYDPEYTKPVEYILPQPDVRVNQVGYLPEGKKVATVVCNSTQPVKWQLKNAAGVVVLEGYTEPKGLDKDSQDYVHWLDFSDFATEGIGYYFELPTVNSPTNYSHPFDIRKDIYTQMKYDALAFFYHKRSGIPIEMPYAGGEQWTRPAGHIGIEPNKGDTNVPTWPQDDEYAGIPQKNYTKDVTGGWYDAGDHGKYVVNGGIAVWTLMNMYERAKIRGLDNWGPYRDGGMNIPEQNNGYPDILDEARWEIEFFKKMQVTEKEDPSIAGMVHHKIHDFRWTALGMLPHEDPQPRYLRPVSTAATLNFAATLAQSARLWKDYDPTFAADCLEKAEIAWQAALKHPDIYAEYTPGSGGPGGGPYNDDYVGDEFYWAACELYVTTGKDEYKNYLMNSPHYLEMPAKMGENGGANGEDNGLWGCFTWGTTQGLGTITLALVENGLPATDIQKARNNIAKAADRWLENIEEQGYRLPIKQAEDERGGYPWGSNSFILNQMIVMGYAYDFTGDSKYLDGMFDGISYLLGRNAMDQSYVTGYGERPLQNPHDRFWTPQTSKRFPAPPPGIISGGPNSRFEDPTINAAVKKDTPPQKCFIDHTDSWSTNEITVNWNAPFAWVTAYLDEQYTDSETDKVTIDSPVAGERFEAGKDINISATVKSKTPVSKVEFYNGDTLISSDTTAPYTAKITGAAVGAYNLKAVAVLSDGRRIESPVTPVLVKVIVKPTVKLTAPKSNVVAYGNEFLKITATASDSDGKISRVDFLVDGEVIGSDREAPYEYEWKAVEGNHEISVIAYDDDDAASTPDSVKIFVKQARDVKVQYLCENTQTSTQEIKGKFNIVNTGNRDYSLKDIVLRYYFTKEHNSQLQFICYYTPIGSGNLIPSFGGSGDEHYLQLEFKDVKLPAGGQTGEIQFVIRYADNSFHDQSNDYSFDPTIKAFQDYGKVTLYKNGELVWGTPPGGTEPEEPEEPAIVYGDCNDDGKVNSTDVAVMKRYLKKENVNINLDNADVNADGKVNSTDFSILKRYVMKNIEELPYR

Assays:
[1] = target: Monoscaffoldin (truncated CipA), Cohesin 2-CBM3a (UniProt Q06851)
[2] = target: T1, Monoscaffoldin (truncated CipA), Cohesin 2-CBM3a, Q06851
T1 chain: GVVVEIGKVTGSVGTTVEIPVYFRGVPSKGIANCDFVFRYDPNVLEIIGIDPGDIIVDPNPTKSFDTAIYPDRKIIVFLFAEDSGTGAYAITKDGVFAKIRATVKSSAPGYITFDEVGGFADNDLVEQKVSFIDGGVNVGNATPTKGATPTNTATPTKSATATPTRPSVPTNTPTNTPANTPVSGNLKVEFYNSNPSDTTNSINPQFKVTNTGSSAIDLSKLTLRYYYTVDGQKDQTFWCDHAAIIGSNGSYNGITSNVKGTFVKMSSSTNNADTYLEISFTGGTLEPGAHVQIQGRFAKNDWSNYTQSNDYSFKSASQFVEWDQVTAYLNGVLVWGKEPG

Molecule | yield of soluble sugar from Avicel after 119 hour digestion, with the adaptor relative to without it [1] | yield of soluble sugar from Avicel after 119 hour digestion, with the adaptor relative to without it [2]
Chimera1 of CbhA (CBM4-Ig-GH9-linker1-CBM3b-Doc) | increased by factors of 1.55 and 1.73 | 
B1 |  | increased by factors of 1.55 and 1.73
B2 |  | increased by a factor of only 1.09
